Measurements taken from paper PMC9834221, “TLR3 forms a laterally aligned multimeric complex along double-stranded RNA for efficient signal transduction”.

B1: mouse Toll-like receptor 3 (TLR3) extracellular domain (ECD), wild type [mouse] / itself (parent)
chain: TNQCTVRYNVADCSHLKLTHIPDDLPSNITVLNLTHNQLRRLPPTNFTRYSQLAILDAGFNSISKLEPELCQILPLLKVLNLQHNELSQISDQTFVFCTNLTELDLMSNSIHKIKSNPFKNQKNLIKLDLSHNGLSSTKLGTGVQLENLQELLLAKNKILALRSEELEFLGNSSLRKLDLSSNPLKEFSPGCFQTIGKLFALLLNNAQLNPHLTEKLCWELSNTSIQNLSLANNQLLATSESTFSGLKWTNLTQLDLSYNNLHDVGNGSFSYLPSLRYLSLEYNNIQRLSPRSFYGLSNLRYLSLKRAFTKQSVSLASHPNIDDFSFQWLKYLEYLNMDDNNIPSTKSNTFTGLVSLKYLSLSKTFTSLQTLTNETFVSLAHSPLLTLNLTKNHISKIANGTFSWLGQLRILDLGLNEIEQKLSGQEWRGLRNIFEIYLSYNKYLQLSTSSFALVPSLQRLMLRRVALKNVDISPSPFRPLRNLTILDLSNNNIANINEDLLEGLENLEILDFQHNNLARLWKRANPGGPVNFLKGLSHLHILNLESNGLDEIPVGVFKNLFELKSINLGLNNLNKLEPFIFDDQTSLRSLNLQKNLITSVEKDVFGPPFQNLNSLDMRFNPFDCTCESISWFVNWINQTHTNISELSTHYLCNTPHHYYGFPLKLFDTSSCKDSAPFEL

Variants of: B1
Test: cryo-EM 2D classification (fraction of tetrameric TLR3 particles on 90 bp dsRNA)
Settings: with itself; TLR3 0.2 mg/mL (~2.4 µM) with 3.6 molar amount of 90 bp dsRNA (0.5 mg/mL, ~8.6 µM); 25 mM MES-NaOH pH 5.3 and 0.2 M NaCl; on ice for 2–3 h; parent: 11; read off a plot

Row | Variant | screen value [%]
1 | chain 1 S91E Q93E K113E K115E N117E K120E N121E | 0.75
2 | chain 1 Q93E V96E K113E K115E N117E K120E N121E | 1.6
3 | chain 1 E499K D500K | 3.6
4 | chain 1 E499K D500K E503K | 2.7
5 | chain 1 N498K E499K E503K | 12
